# Reference: paper PMC12318543
# Like-named read-outs stand apart in the source and are kept apart here.
# What was measured:
# [1] = biological target: PtuA L81R mutant (Escherichia coli (strain ATCC 25922)); experiment: mass photometry
# [2] = biological target: PtuA (Escherichia coli Septu system) (Escherichia coli (strain ATCC 25922)); experiment: cryo-EM structure
# [3] = biological target: PtuA (Escherichia coli Septu system) (Escherichia coli (strain ATCC 25922)); experiment: cryo-EM structure; remark: listed apart in the source
substance,measurement,setting,value
PtuA L81R mutant (natural protein),stoichiometry N,[1],2
PtuA (Escherichia coli Septu system) (natural protein),stoichiometry N,[2],6
same,stoichiometry N,[3],6
